Experimental data taken from the supplement of paper PMC10065799, “High-throughput profiling of sequence recognition by tyrosine kinases and SH2 domains using bacterial peptide display” (eLife, 2023).

Assays:
c-Src SH2 = assay: SH2 binding enrichment of the phosphorylated peptide, bacterial display (enrichment ratio); higher = better substrate or ligand; peptides without Tyr show the background
SHP2-C SH2 = assay: as above
Grb2 SH2 = Grb2 SH2 (UniProt P62993); assay: as above
Fer (mouse) = assay: phosphorylation enrichment, bacterial display (enrichment ratio); higher = better substrate or ligand; peptides without Tyr show the background
Jak2 = Jak2 (UniProt O60674); assay: as above
Fes = Fes (UniProt P07332); assay: as above
MERTK = MERTK (UniProt Q12866); assay: as above
EPHB2 = EPHB2 (UniProt P29323); assay: as above
FGFR1 = FGFR1 (UniProt P11362); assay: as above
EPHB1 = EPHB1 (UniProt P54762); assay: as above
FGFR3 = FGFR3 (UniProt P22607); assay: as above
Hck = Hck (UniProt P08631); assay: as above
c-Src = assay: as above
Fyn = Fyn (UniProt P06241); assay: as above
c-Abl (mouse) = assay: as above
AncSZ = assay: as above
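Wherever SH2 binding enrichment of the phosphorylated peptide, bacterial display is given: peptide library displayed on the E. coli surface as eCPX fusions, selected cells deep-sequenced, score is each peptide's frequency after selection divided by its frequency in the input.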
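Wherever phosphorylation enrichment, bacterial display is given: 11-residue human phosphosite peptides and single-mutation variants displayed on the E. coli surface, counted by deep sequencing, each peptide's frequency after selection divided by its frequency in the unselected input library; frequency after pTyr selection over input frequency; kinase dosed for 20-30% of maximal phosphorylation in three min.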

FGFR3, sequence (P22607 whole entry, looked up): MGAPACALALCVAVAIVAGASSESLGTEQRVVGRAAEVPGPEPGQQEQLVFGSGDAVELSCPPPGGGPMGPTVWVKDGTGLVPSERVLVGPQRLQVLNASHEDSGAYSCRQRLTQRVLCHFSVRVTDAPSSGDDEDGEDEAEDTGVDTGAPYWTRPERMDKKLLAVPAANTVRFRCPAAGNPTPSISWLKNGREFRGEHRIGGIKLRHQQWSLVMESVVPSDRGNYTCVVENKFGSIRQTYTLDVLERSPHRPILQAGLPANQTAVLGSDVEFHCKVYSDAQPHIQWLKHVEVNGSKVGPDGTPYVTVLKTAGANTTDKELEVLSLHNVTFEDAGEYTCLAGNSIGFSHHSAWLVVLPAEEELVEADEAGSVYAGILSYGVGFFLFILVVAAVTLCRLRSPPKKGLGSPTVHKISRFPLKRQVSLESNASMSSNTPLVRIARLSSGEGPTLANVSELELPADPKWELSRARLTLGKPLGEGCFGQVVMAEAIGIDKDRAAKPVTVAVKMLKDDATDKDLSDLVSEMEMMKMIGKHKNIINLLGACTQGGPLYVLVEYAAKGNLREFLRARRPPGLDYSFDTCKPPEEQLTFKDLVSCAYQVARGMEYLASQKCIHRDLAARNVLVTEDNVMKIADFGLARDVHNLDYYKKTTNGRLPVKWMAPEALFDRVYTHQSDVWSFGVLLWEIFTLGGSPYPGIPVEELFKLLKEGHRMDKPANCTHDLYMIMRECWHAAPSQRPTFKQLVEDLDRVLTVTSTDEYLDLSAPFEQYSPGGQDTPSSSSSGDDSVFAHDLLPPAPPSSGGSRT
Jak2, sequence (O60674 whole entry, looked up): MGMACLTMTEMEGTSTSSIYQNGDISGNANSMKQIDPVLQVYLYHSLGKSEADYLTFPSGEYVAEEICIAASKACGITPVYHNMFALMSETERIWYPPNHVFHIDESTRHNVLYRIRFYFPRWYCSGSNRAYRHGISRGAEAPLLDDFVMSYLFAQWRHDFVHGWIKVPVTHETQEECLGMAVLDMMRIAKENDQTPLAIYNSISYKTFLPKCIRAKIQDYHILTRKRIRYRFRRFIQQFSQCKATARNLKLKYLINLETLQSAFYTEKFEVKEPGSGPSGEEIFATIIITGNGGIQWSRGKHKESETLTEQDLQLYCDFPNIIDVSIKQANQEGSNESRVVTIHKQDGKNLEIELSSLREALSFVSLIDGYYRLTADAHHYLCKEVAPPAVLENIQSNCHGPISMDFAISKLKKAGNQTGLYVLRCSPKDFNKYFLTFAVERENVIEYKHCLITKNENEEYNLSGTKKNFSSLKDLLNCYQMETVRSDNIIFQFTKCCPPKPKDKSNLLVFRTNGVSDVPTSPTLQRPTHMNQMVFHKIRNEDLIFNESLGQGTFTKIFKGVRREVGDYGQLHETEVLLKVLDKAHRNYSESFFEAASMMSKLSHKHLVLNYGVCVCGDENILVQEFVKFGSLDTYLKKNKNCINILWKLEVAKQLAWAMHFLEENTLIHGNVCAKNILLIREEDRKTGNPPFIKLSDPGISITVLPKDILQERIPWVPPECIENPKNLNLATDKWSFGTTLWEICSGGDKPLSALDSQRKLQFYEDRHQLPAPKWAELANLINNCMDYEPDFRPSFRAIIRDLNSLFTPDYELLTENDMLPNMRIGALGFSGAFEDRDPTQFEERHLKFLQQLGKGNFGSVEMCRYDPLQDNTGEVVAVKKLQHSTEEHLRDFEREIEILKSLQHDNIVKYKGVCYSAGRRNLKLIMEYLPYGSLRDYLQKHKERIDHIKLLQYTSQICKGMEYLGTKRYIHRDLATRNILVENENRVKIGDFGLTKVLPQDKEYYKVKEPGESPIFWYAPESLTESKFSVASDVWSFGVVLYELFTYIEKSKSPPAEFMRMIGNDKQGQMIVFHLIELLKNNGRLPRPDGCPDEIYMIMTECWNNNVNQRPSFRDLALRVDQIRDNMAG
FGFR1, sequence (P11362 whole entry, looked up): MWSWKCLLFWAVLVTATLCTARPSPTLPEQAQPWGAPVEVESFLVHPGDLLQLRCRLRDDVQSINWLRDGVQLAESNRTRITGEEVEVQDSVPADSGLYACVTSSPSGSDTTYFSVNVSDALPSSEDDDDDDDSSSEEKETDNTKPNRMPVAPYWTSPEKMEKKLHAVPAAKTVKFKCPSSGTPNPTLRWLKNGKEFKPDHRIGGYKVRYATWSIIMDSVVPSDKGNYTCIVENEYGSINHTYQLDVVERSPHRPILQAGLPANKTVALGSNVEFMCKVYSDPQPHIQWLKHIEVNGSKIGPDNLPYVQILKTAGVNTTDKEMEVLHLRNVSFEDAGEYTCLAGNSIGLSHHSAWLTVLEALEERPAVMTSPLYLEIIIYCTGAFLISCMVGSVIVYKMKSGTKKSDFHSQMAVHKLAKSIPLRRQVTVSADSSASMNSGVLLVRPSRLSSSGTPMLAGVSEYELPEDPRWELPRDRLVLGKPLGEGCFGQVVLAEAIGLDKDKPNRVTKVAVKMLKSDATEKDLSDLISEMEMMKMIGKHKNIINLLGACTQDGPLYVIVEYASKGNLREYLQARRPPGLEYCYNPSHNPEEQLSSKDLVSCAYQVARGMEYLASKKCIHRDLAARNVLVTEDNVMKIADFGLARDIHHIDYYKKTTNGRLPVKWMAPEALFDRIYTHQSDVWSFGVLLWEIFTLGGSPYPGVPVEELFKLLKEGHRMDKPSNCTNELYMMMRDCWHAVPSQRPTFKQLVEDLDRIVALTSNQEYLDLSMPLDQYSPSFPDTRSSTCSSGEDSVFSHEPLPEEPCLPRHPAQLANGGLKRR
EPHB2, sequence (P29323 whole entry, looked up): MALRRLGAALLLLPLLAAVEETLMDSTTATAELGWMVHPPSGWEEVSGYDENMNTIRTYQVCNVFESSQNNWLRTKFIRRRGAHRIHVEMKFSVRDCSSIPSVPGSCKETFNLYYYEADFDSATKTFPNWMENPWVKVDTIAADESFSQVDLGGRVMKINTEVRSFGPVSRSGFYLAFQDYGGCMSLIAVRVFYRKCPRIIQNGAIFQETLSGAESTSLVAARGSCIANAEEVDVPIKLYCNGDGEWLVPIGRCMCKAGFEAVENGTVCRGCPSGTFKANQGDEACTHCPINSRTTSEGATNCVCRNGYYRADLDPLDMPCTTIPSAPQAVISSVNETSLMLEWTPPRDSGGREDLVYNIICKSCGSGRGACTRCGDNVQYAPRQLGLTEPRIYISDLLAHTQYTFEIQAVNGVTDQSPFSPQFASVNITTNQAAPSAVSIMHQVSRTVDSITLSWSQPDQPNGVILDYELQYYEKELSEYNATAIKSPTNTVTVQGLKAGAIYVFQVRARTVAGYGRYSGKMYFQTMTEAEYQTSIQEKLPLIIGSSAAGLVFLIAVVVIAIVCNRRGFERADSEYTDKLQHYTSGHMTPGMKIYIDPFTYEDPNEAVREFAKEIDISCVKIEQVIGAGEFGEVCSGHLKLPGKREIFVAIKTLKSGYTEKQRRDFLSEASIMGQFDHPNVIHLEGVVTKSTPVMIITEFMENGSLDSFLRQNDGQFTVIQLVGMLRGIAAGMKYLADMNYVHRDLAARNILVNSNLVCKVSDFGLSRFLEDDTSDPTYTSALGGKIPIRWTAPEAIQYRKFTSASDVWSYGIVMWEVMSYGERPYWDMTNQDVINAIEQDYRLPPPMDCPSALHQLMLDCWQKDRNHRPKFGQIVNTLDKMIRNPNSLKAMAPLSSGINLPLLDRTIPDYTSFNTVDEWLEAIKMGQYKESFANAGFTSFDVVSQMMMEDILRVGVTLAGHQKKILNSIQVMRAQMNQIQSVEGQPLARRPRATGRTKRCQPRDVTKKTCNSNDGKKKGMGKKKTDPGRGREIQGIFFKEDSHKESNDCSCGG
Fes, sequence (P07332 whole entry, looked up): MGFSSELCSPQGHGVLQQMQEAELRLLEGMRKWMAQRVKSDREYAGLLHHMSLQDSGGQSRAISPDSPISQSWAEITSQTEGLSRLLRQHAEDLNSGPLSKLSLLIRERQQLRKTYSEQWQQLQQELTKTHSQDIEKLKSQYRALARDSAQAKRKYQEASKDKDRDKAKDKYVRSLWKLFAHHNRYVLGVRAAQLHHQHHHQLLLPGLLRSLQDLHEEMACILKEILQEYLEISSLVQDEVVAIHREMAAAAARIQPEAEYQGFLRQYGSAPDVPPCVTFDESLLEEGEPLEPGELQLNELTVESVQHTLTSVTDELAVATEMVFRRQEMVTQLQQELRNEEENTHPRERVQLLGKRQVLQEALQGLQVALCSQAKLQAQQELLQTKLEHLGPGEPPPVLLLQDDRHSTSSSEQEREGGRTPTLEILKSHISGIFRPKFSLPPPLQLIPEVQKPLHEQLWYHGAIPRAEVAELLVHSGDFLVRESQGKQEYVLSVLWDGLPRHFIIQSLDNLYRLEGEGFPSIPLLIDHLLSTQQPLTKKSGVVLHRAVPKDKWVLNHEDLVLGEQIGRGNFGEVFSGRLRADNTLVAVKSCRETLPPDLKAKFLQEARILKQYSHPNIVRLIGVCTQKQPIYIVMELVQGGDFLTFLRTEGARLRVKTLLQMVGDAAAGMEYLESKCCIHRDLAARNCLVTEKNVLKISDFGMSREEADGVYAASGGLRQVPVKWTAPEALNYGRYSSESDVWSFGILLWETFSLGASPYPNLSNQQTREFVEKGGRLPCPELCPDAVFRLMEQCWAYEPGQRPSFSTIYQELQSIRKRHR
Grb2 SH2, sequence (P62993 whole entry, looked up): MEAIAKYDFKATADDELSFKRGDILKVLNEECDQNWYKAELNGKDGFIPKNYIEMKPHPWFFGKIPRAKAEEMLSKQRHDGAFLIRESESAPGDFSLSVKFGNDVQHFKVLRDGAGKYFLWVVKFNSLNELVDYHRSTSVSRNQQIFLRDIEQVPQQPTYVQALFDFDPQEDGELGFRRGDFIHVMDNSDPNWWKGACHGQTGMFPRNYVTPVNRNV

Sequence: YRQLQYCPSVE [CTNND2_Y508]
- SH2 binding enrichment (c-Src SH2): 0.472
- SH2 binding enrichment (SHP2-C SH2): 0.488
- SH2 binding enrichment (Grb2 SH2): 0.678
- phosphorylation enrichment (Fer (mouse)): 0.637
- phosphorylation enrichment (Jak2): 0.857
- phosphorylation enrichment (Fes): 1.31
- phosphorylation enrichment (MERTK): 0.483
- phosphorylation enrichment (EPHB2): 0.591
- phosphorylation enrichment (FGFR1): 0.545
- phosphorylation enrichment (EPHB1): 0.661
- phosphorylation enrichment (FGFR3): 0.928
- phosphorylation enrichment (Hck): 0.606
- phosphorylation enrichment (c-Src): 0.476
- phosphorylation enrichment (Fyn): 0.538
- phosphorylation enrichment (c-Abl (mouse)): 0.861
- phosphorylation enrichment (AncSZ): 1.11

Sequence: YSQNIYIQNRN [PKP2_Y631]
- SH2 binding enrichment (c-Src SH2): 0.691
- SH2 binding enrichment (SHP2-C SH2): 0.906
- SH2 binding enrichment (Grb2 SH2): 0.896
- phosphorylation enrichment (Fer (mouse)): 0.489
- phosphorylation enrichment (Jak2): 0.59
- phosphorylation enrichment (Fes): 0.706
- phosphorylation enrichment (MERTK): 1.43
- phosphorylation enrichment (EPHB2): 0.569
- phosphorylation enrichment (FGFR1): 0.482
- phosphorylation enrichment (EPHB1): 0.424
- phosphorylation enrichment (FGFR3): 0.483
- phosphorylation enrichment (Hck): 0.633
- phosphorylation enrichment (c-Src): 0.528
- phosphorylation enrichment (Fyn): 0.443
- phosphorylation enrichment (c-Abl (mouse)): 0.6
- phosphorylation enrichment (AncSZ): 0.804

Sequence: YTGDIYSNSNL [LZTR1_Y141]
- SH2 binding enrichment (c-Src SH2): 0.479
- SH2 binding enrichment (SHP2-C SH2): 0.545
- SH2 binding enrichment (Grb2 SH2): 0.648
- phosphorylation enrichment (Fer (mouse)): 3.56
- phosphorylation enrichment (Jak2): 0.524
- phosphorylation enrichment (Fes): 0.707
- phosphorylation enrichment (MERTK): 2.36
- phosphorylation enrichment (EPHB2): 1.53
- phosphorylation enrichment (FGFR1): 0.626
- phosphorylation enrichment (EPHB1): 1.19
- phosphorylation enrichment (FGFR3): 0.616
- phosphorylation enrichment (Hck): 7.87
- phosphorylation enrichment (c-Src): 4.63
- phosphorylation enrichment (Fyn): 7.46
- phosphorylation enrichment (c-Abl (mouse)): 0.911
- phosphorylation enrichment (AncSZ): 0.954

Sequence: YTGNTYRVGDT [FN1_Y106]
- SH2 binding enrichment (c-Src SH2): 0.406
- SH2 binding enrichment (SHP2-C SH2): 0.55
- SH2 binding enrichment (Grb2 SH2): 0.766
- phosphorylation enrichment (Fer (mouse)): 0.415
- phosphorylation enrichment (Jak2): 0.563
- phosphorylation enrichment (Fes): 0.775
- phosphorylation enrichment (MERTK): 0.389
- phosphorylation enrichment (EPHB2): 0.424
- phosphorylation enrichment (FGFR1): 0.439
- phosphorylation enrichment (EPHB1): 0.448
- phosphorylation enrichment (FGFR3): 0.534
- phosphorylation enrichment (Hck): 0.486
- phosphorylation enrichment (c-Src): 0.467
- phosphorylation enrichment (Fyn): 0.441
- phosphorylation enrichment (c-Abl (mouse)): 0.569
- phosphorylation enrichment (AncSZ): 0.666
